Results published in PMC6559660.

Key:
[1] = biological target: N-acetylneuraminate lyase from Aliivibrio salmonicida LFI1238, construct with C-terminal His6-tag (Aliivibrio salmonicida LFI1238); assay: crystal structure; crystals from 25% PEG 1.5 K and 20% glycerol; space group I222, one molecule in the asymmetric unit; tetramer generated by crystallographic symmetry; 1.65 A
[2] = biological target: N-acetylneuraminate lyase from Aliivibrio salmonicida LFI1238, construct with TEV-cleavable N-terminal His6-tag (Aliivibrio salmonicida LFI1238); assay: SEC; Superdex 200 prep grade HiLoad 16/60 in 50 mM Tris-HCl pH 7.5, 500 mM NaCl, 5 mM beta-ME, 10% glycerol; room temperature
[3] = biological target: N-acetylneuraminate lyase from Aliivibrio salmonicida LFI1238, construct with TEV-cleavable N-terminal His6-tag (Aliivibrio salmonicida LFI1238); assay: native gel or EMSA; native PAGE of purified AsNAL (2.75 ug) beside NativeMark unstained protein standard

stoichiometry N [1]	stoichiometry N [2]	stoichiometry N [3]	Substance
4	–	–	N-acetylneuraminate lyase from Aliivibrio salmonicida LFI1238, construct with C-terminal His6-tag (enzyme)
–	4	4	N-acetylneuraminate lyase from Aliivibrio salmonicida LFI1238, construct with TEV-cleavable N-terminal His6-tag (enzyme)
